Experimental data as given in the supplement of paper PMC9112550, “Optimization of the antimicrobial peptide Bac7 by deep mutational scanning” (BMC Biology, 2022).

Each sequence was assayed on Escherichia coli TOP10 (assay: shrunken log2 fold change of peptide-encoding DNA abundance (4.5 h post-induction vs induction); higher = less antimicrobial activity (less host growth inhibition)). Conditions: time post-induction: 4.5 h; library: site-saturation at positions 5, 18, 19, 20.
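Note: peptides expressed intracellularly from a pBAD plasmid library in pooled LB shake-flask culture, induced with 0.3% L-arabinose, DNA abundance read by NGS, three biological replicates, DESeq2 with apeglm shrinkage.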

Sequence | shrunken log2 fold change
RRIRKRPPRLPRPRPRPNQPPRP | 0.146
RRIRKRPPRLPRPRPRPNSDPRP | -0.0158
RRIRKRPPRLPRPRPRPNTTPRP | -0.0509
RRIRKRPPRLPRPRPRPNVVPRP | 0.0163
RRIRKRPPRLPRPRPRPNWDPRP | 1.4
RRIRKRPPRLPRPRPRPNWEPRP | 0.0515
RRIRKRPPRLPRPRPRPNWHPRP | -0.0566
RRIRKRPPRLPRPRPRPNWPPRP | 0.19
RRIRKRPPRLPRPRPRPNWQPRP | 0.0483
RRIRKRPPRLPRPRPRPNYKPRP | -0.507
RRIRKRPPRLPRPRPRPPAVPRP | 0.847
RRIRKRPPRLPRPRPRPPCTPRP | 0.193
RRIRKRPPRLPRPRPRPPDVPRP | -0.0127
RRIRKRPPRLPRPRPRPPEEPRP | 1.79
RRIRKRPPRLPRPRPRPPEVPRP | 0.741
RRIRKRPPRLPRPRPRPPGLPRP | 0.308
RRIRKRPPRLPRPRPRPPGYPRP | 0.176
RRIRKRPPRLPRPRPRPPIFPRP | 0.269
RRIRKRPPRLPRPRPRPPIQPRP | 0.304
RRIRKRPPRLPRPRPRPPIRPRP | -0.104
RRIRKRPPRLPRPRPRPPMHPRP | 0.636
RRIRKRPPRLPRPRPRPPMKPRP | 0.135
RRIRKRPPRLPRPRPRPPMTPRP | -0.00191
RRIRKRPPRLPRPRPRPPPCPRP | 0.585
RRIRKRPPRLPRPRPRPPPGPRP | 0.961

Sequence | shrunken log2 fold change
RRIRKRPPRLPRPRPRPPTDPRP | 0.544
RRIRKRPPRLPRPRPRPPTEPRP | 0.395
RRIRKRPPRLPRPRPRPPTHPRP | 0.42
RRIRKRPPRLPRPRPRPPVNPRP | 0.04
RRIRKRPPRLPRPRPRPPVTPRP | 0.39
RRIRKRPPRLPRPRPRPPWIPRP | -0.0983
RRIRKRPPRLPRPRPRPPWTPRP | 0.527
RRIRKRPPRLPRPRPRPPYMPRP | -0.209
RRIRKRPPRLPRPRPRPPYRPRP | -0.17
RRIRKRPPRLPRPRPRPPYYPRP | -0.291
RRIRKRPPRLPRPRPRPQCHPRP | 0.273
RRIRKRPPRLPRPRPRPQFAPRP | -0.0223
RRIRKRPPRLPRPRPRPQHDPRP | 0.202
RRIRKRPPRLPRPRPRPQHVPRP | -0.124
RRIRKRPPRLPRPRPRPQHWPRP | 0.474
RRIRKRPPRLPRPRPRPQIEPRP | 0.0198
RRIRKRPPRLPRPRPRPQKGPRP | -0.0581
RRIRKRPPRLPRPRPRPQKMPRP | 0.0795
RRIRKRPPRLPRPRPRPQKRPRP | 0.403
RRIRKRPPRLPRPRPRPQKTPRP | 0.167
RRIRKRPPRLPRPRPRPQLAPRP | 0.898
RRIRKRPPRLPRPRPRPQLNPRP | 0.0489
RRIRKRPPRLPRPRPRPQLSPRP | -0.272
RRIRKRPPRLPRPRPRPQLYPRP | 0.0948
RRIRKRPPRLPRPRPRPQMMPRP | -0.0245

Sequence | shrunken log2 fold change
RRIRKRPPRLPRPRPRPQNDPRP | -0.0578
RRIRKRPPRLPRPRPRPQPAPRP | 0.783
RRIRKRPPRLPRPRPRPQPCPRP | 0.192
RRIRKRPPRLPRPRPRPQPFPRP | 0.18
RRIRKRPPRLPRPRPRPQPLPRP | 0.405
RRIRKRPPRLPRPRPRPQQRPRP | 0.0562
RRIRKRPPRLPRPRPRPQQTPRP | -0.0533
RRIRKRPPRLPRPRPRPQRFPRP | -0.00315
RRIRKRPPRLPRPRPRPQSHPRP | 0.353
RRIRKRPPRLPRPRPRPQSPPRP | 0.18
RRIRKRPPRLPRPRPRPQTIPRP | 0.0582
RRIRKRPPRLPRPRPRPQTPPRP | 1.39
RRIRKRPPRLPRPRPRPQVAPRP | -0.0663
RRIRKRPPRLPRPRPRPQWCPRP | 0.149
RRIRKRPPRLPRPRPRPQYAPRP | 0.0233
RRIRKRPPRLPRPRPRPRAEPRP | 0.632
RRIRKRPPRLPRPRPRPRDAPRP | 0.558
RRIRKRPPRLPRPRPRPREGPRP | 1.08
RRIRKRPPRLPRPRPRPRFDPRP | 0.19
RRIRKRPPRLPRPRPRPRFIPRP | 0.346
RRIRKRPPRLPRPRPRPRGTPRP | 0.648
RRIRKRPPRLPRPRPRPRKAPRP | 0.384
RRIRKRPPRLPRPRPRPRLGPRP | 0.587
RRIRKRPPRLPRPRPRPRLYPRP | 0.0187
RRIRKRPPRLPRPRPRPRMAPRP | 0.818

Sequence | shrunken log2 fold change
RRIRKRPPRLPRPRPRPRMLPRP | 0.588
RRIRKRPPRLPRPRPRPRMVPRP | 0.168
RRIRKRPPRLPRPRPRPRNMPRP | -0.162
RRIRKRPPRLPRPRPRPRNVPRP | 0.132
RRIRKRPPRLPRPRPRPRPYPRP | 0.182
RRIRKRPPRLPRPRPRPRQIPRP | 0.298
RRIRKRPPRLPRPRPRPRQWPRP | 0.263
RRIRKRPPRLPRPRPRPRSAPRP | 0.884
RRIRKRPPRLPRPRPRPRSEPRP | -0.00081
RRIRKRPPRLPRPRPRPRTRPRP | 0.618
RRIRKRPPRLPRPRPRPRVCPRP | 0.282
RRIRKRPPRLPRPRPRPRVHPRP | 0.252
RRIRKRPPRLPRPRPRPRVNPRP | 0.0555
RRIRKRPPRLPRPRPRPRVPPRP | 0.0172
RRIRKRPPRLPRPRPRPRWTPRP | 0.347
RRIRKRPPRLPRPRPRPRWWPRP | 0.316
RRIRKRPPRLPRPRPRPRYKPRP | 0.15
RRIRKRPPRLPRPRPRPRYLPRP | -0.179
RRIRKRPPRLPRPRPRPSAQPRP | 1.84
RRIRKRPPRLPRPRPRPSDEPRP | 0.258
RRIRKRPPRLPRPRPRPSETPRP | 0.0356
RRIRKRPPRLPRPRPRPSEYPRP | -0.026
RRIRKRPPRLPRPRPRPSFAPRP | 0.337
RRIRKRPPRLPRPRPRPSGLPRP | -0.0301
RRIRKRPPRLPRPRPRPSIHPRP | -0.551

Sequence | shrunken log2 fold change
RRIRKRPPRLPRPRPRPSKDPRP | 0.395
RRIRKRPPRLPRPRPRPSKNPRP | 0.219
RRIRKRPPRLPRPRPRPSLIPRP | -0.0338
RRIRKRPPRLPRPRPRPSLLPRP | -0.0176
RRIRKRPPRLPRPRPRPSLYPRP | 0.0834
RRIRKRPPRLPRPRPRPSNRPRP | -0.00152
RRIRKRPPRLPRPRPRPSNSPRP | 0.13
RRIRKRPPRLPRPRPRPSPHPRP | -0.0333
RRIRKRPPRLPRPRPRPSPLPRP | 0.446
RRIRKRPPRLPRPRPRPSRMPRP | 0.317
RRIRKRPPRLPRPRPRPSSFPRP | 0.0223
RRIRKRPPRLPRPRPRPSSSPRP | -0.94
RRIRKRPPRLPRPRPRPSVEPRP | 0.0133
RRIRKRPPRLPRPRPRPSVIPRP | -0.0922
RRIRKRPPRLPRPRPRPSVYPRP | -0.0427
RRIRKRPPRLPRPRPRPSYDPRP | 0.0212
RRIRKRPPRLPRPRPRPTACPRP | 0.108
RRIRKRPPRLPRPRPRPTAIPRP | 0.444
RRIRKRPPRLPRPRPRPTAQPRP | 1.88
RRIRKRPPRLPRPRPRPTCCPRP | 0.0692
RRIRKRPPRLPRPRPRPTCSPRP | 0.281
RRIRKRPPRLPRPRPRPTDAPRP | 0.05
RRIRKRPPRLPRPRPRPTDSPRP | -0.0461
RRIRKRPPRLPRPRPRPTEVPRP | 0.158
RRIRKRPPRLPRPRPRPTEWPRP | 0.0407

Sequence | shrunken log2 fold change
RRIRKRPPRLPRPRPRPTFAPRP | 0.673
RRIRKRPPRLPRPRPRPTFKPRP | 0.0344
RRIRKRPPRLPRPRPRPTHRPRP | 1.15
RRIRKRPPRLPRPRPRPTHWPRP | 0.796
RRIRKRPPRLPRPRPRPTIDPRP | 0.128
RRIRKRPPRLPRPRPRPTIIPRP | -0.0974
RRIRKRPPRLPRPRPRPTKKPRP | 0.0465
RRIRKRPPRLPRPRPRPTKWPRP | 0.172
RRIRKRPPRLPRPRPRPTMDPRP | 0.0288
RRIRKRPPRLPRPRPRPTQCPRP | 0.567
RRIRKRPPRLPRPRPRPTQSPRP | 0.441
RRIRKRPPRLPRPRPRPTRQPRP | 0.724
RRIRKRPPRLPRPRPRPTSIPRP | 0.208
RRIRKRPPRLPRPRPRPTTRPRP | 0.717
RRIRKRPPRLPRPRPRPTVIPRP | -0.15
RRIRKRPPRLPRPRPRPTVYPRP | -0.0794
RRIRKRPPRLPRPRPRPVEWPRP | 0.12
RRIRKRPPRLPRPRPRPVFEPRP | 0.347
RRIRKRPPRLPRPRPRPVFIPRP | -0.0138
RRIRKRPPRLPRPRPRPVGSPRP | 0.178
RRIRKRPPRLPRPRPRPVHAPRP | 0.464
RRIRKRPPRLPRPRPRPVIRPRP | 0.0302
RRIRKRPPRLPRPRPRPVLGPRP | 0.977
RRIRKRPPRLPRPRPRPVMCPRP | 0.0989
RRIRKRPPRLPRPRPRPVNHPRP | -0.0443
